{"source": "patent US20230348564A1", "about": "“ANTI-CANCER PROTEINS” (UNICHEM LABORATORIES LTD, priority 2020, published 2023)", "molecules": {"B1": {"name": "SEQ ID NO. 2: recombinant lectin; variant of the S. rolfsii lectin amino acid sequence (reported as Rec-2 in WO 2010/095143) (protein)", "chain": "TYKITVRVYQTNPDAFFHPVEKTVWKYANGGTWTITDDQHVLTMGGSGTSGTLRFHADNGESFTATFGVHNYKRWCDIVTNLAADETGMVINQQYYSQKNREEARERQLSNYQVKNAKGRNFQIVYTEAEGNDLHANLIIG", "modifications": "In vitro synthesis"}}, "key": {"[1]": {"system": "MDA-MB-231", "experiment": "Annexin-V staining (flow cytometry)", "assay_type": "cell-based, Human", "conditions": "24 h", "method": "(§1) The cell lines were maintained in DMEM+10% FBS (heat inactivated) at 37° C. with 5% CO2, and 95% humidity. Antibiotics Penicillin (100 U/mL) and Streptomycin (100 μg/mL) were added to the medium.\n(§2) The stock solution of recombinant lectin having the amino acid sequence of SEQ ID NO. […] Doxorubicin was used as positive control and stock solution was prepared in DMSO.\n(§3) Cells were counted using hemocytometer and plated in culture plates at the density of 0.4×10^6 cells/well in DMEM+10% FBS in 6-well plates. Cells were incubated overnight to allow the cell recovery and exponential growth. Following overnight incubation, cells were treated with Lectin having the amino acid sequence of SEQ ID NO. 2 in DMEM+0% FBS at concentrations ranging from 2.5 μg/mL to 80 μg/mL. Untreated cells were included as Control group for sample. Cells treated with Doxorubicin were included as Positive Control group. DMSO treated cells were included as control group for Doxorubicin. After treatment, cells were incubated for a time period of 24 h.\n(§4) Following incubation, the pro-apoptotic effect was estimated using Annexin assay kit as follows: Annexin reagent contains Annexin-V+7-AAD stain, which differentially labels apoptotic cells in different phases. Four populations of cells can be determined from the flow cytometric plots as follows: • a) Upper Left (UL)—7-AAD(+)/Annexin(−) or Necrotic cells • b) Upper Right (UR)—7-AAD(+)/Annexin(+) or Late apoptotic cells • c) Lower Left (LL)—7-AAD(−)/Annexin(−) or Viable/non-apoptotic cells • d) Lower Right (LR)—7-AAD(−)/Annexin(+) or Early apoptotic cells\n(§5) Cells were gently harvested into pre-labeled sterile centrifuge tubes and centrifuged at 300×g for 5-7 min. Supernatant were discarded and the pellet was resuspended in 200 μl of fresh culture medium.\n(§6) 100 μl of cell suspension was transferred into pre-labeled sterile centrifuge tubes.\n(§7) 100 μl of Annexin-V reagent was added to each tube and incubated for 30 min at RT in dark.\n(§8) Cells stained for Annexin-V were then transferred into 96-well plates and acquired on flow cytometer (Guava technologies). Percentage of cells in early apoptotic, late apoptotic and necrotic phase were determined.\n(§9) Fold increase in apoptotic cells (treated with Test Items) was determined as compared to Control (untreated cells)."}, "[2]": {"system": "PANC-1", "experiment": "Annexin-V staining (flow cytometry)", "assay_type": "cell-based, Human", "conditions": "24 h", "method": "as §1, §2, §3, §4, §5, §6, §7, §8, §9"}}, "data": [{"molecule": "B1", "values": [{"measurement": "% Population of cells, LL Annex− 7AAD− Viable", "setting": "[1]; 2.5 μg/mL", "value": 75.7, "unit": "%"}, {"measurement": "% Population of cells, LR Annex+ 7AAD− Early apoptotic", "setting": "[1]; 2.5 μg/mL", "value": 7.9, "unit": "%"}, {"measurement": "% Population of cells, UL Annex− 7AAD+ Necrotic", "setting": "[1]; 2.5 μg/mL", "value": 3.2, "unit": "%"}, {"measurement": "% Population of cells, UR Annex+ 7AAD+ Late apoptotic", "setting": "[1]; 2.5 μg/mL", "value": 13.2, "unit": "%"}, {"measurement": "Fold increase (wrt control), LR Annex+ 7-AAD−", "setting": "[1]; 2.5 μg/mL", "value": 15.8, "unit": "fold"}, {"measurement": "Fold increase (wrt control), UL Annex− 7-AAD+", "setting": "[1]; 2.5 μg/mL", "value": 4.6, "unit": "fold"}, {"measurement": "Fold increase (wrt control), UR Annex+ 7-AAD+", "setting": "[1]; 2.5 μg/mL", "value": 22.0, "unit": "fold"}, {"measurement": "% Population of cells, LL Annex− 7AAD− Viable", "setting": "[1]; 5 μg/mL", "value": 72.3, "unit": "%"}, {"measurement": "% Population of cells, LR Annex+ 7AAD− Early apoptotic", "setting": "[1]; 5 μg/mL", "value": 7.0, "unit": "%"}, {"measurement": "% Population of cells, UL Annex− 7AAD+ Necrotic", "setting": "[1]; 5 μg/mL", "value": 12.5, "unit": "%"}, {"measurement": "% Population of cells, UR Annex+ 7AAD+ Late apoptotic", "setting": "[1]; 5 μg/mL", "value": 8.2, "unit": "%"}, {"measurement": "Fold increase (wrt control), LR Annex+ 7-AAD−", "setting": "[1]; 5 μg/mL", "value": 14.0, "unit": "fold"}, {"measurement": "Fold increase (wrt control), UL Annex− 7-AAD+", "setting": "[1]; 5 μg/mL", "value": 17.9, "unit": "fold"}, {"measurement": "Fold increase (wrt control), UR Annex+ 7-AAD+", "setting": "[1]; 5 μg/mL", "value": 13.7, "unit": "fold"}, {"measurement": "% Population of cells, LL Annex− 7AAD− Viable", "setting": "[1]; 10 μg/mL", "value": 64.1, "unit": "%"}, {"measurement": "% Population of cells, LR Annex+ 7AAD− Early apoptotic", "setting": "[1]; 10 μg/mL", "value": 5.8, "unit": "%"}, {"measurement": "% Population of cells, UL Annex− 7AAD+ Necrotic", "setting": "[1]; 10 μg/mL", "value": 20.6, "unit": "%"}, {"measurement": "% Population of cells, UR Annex+ 7AAD+ Late apoptotic", "setting": "[1]; 10 μg/mL", "value": 9.5, "unit": "%"}, {"measurement": "Fold increase (wrt control), LR Annex+ 7-AAD−", "setting": "[1]; 10 μg/mL", "value": 11.6, "unit": "fold"}, {"measurement": "Fold increase (wrt control), UL Annex− 7-AAD+", "setting": "[1]; 10 μg/mL", "value": 29.4, "unit": "fold"}, {"measurement": "Fold increase (wrt control), UR Annex+ 7-AAD+", "setting": "[1]; 10 μg/mL", "value": 15.8, "unit": "fold"}, {"measurement": "% Population of cells, LL Annex− 7AAD− Viable", "setting": "[1]; 20 μg/mL", "value": 58.5, "unit": "%"}, {"measurement": "% Population of cells, LR Annex+ 7AAD− Early apoptotic", "setting": "[1]; 20 μg/mL", "value": 2.9, "unit": "%"}, {"measurement": "% Population of cells, UL Annex− 7AAD+ Necrotic", "setting": "[1]; 20 μg/mL", "value": 32.7, "unit": "%"}, {"measurement": "% Population of cells, UR Annex+ 7AAD+ Late apoptotic", "setting": "[1]; 20 μg/mL", "value": 5.9, "unit": "%"}, {"measurement": "Fold increase (wrt control), LR Annex+ 7-AAD−", "setting": "[1]; 20 μg/mL", "value": 5.8, "unit": "fold"}, {"measurement": "Fold increase (wrt control), UL Annex− 7-AAD+", "setting": "[1]; 20 μg/mL", "value": 46.7, "unit": "fold"}, {"measurement": "Fold increase (wrt control), UR Annex+ 7-AAD+", "setting": "[1]; 20 μg/mL", "value": 9.8, "unit": "fold"}, {"measurement": "% Population of cells, LL Annex− 7AAD− Viable", "setting": "[1]; 80 μg/mL", "value": 61.0, "unit": "%"}, {"measurement": "% Population of cells, LR Annex+ 7AAD− Early apoptotic", "setting": "[1]; 80 μg/mL", "value": 5.3, "unit": "%"}, {"measurement": "% Population of cells, UL Annex− 7AAD+ Necrotic", "setting": "[1]; 80 μg/mL", "value": 26.0, "unit": "%"}, {"measurement": "% Population of cells, UR Annex+ 7AAD+ Late apoptotic", "setting": "[1]; 80 μg/mL", "value": 7.7, "unit": "%"}, {"measurement": "Fold increase (wrt control), LR Annex+ 7-AAD−", "setting": "[1]; 80 μg/mL", "value": 10.6, "unit": "fold"}, {"measurement": "Fold increase (wrt control), UL Annex− 7-AAD+", "setting": "[1]; 80 μg/mL", "value": 37.1, "unit": "fold"}, {"measurement": "Fold increase (wrt control), UR Annex+ 7-AAD+", "setting": "[1]; 80 μg/mL", "value": 12.8, "unit": "fold"}, {"measurement": "% Population of cells, LL Annex− 7AAD− Viable", "setting": "[2]; 2.5 μg/mL", "value": 87.7, "unit": "%"}, {"measurement": "% Population of cells, LR Annex+ 7AAD− Early apoptotic", "setting": "[2]; 2.5 μg/mL", "value": 0.5, "unit": "%"}, {"measurement": "% Population of cells, UL Annex− 7AAD+ Necrotic", "setting": "[2]; 2.5 μg/mL", "value": 10.8, "unit": "%"}, {"measurement": "% Population of cells, UR Annex+ 7AAD+ Late apoptotic", "setting": "[2]; 2.5 μg/mL", "value": 1.0, "unit": "%"}, {"measurement": "Fold increase (wrt control), LR Annex+ 7-AAD−", "setting": "[2]; 2.5 μg/mL", "value": 5.0, "unit": "fold"}, {"measurement": "Fold increase (wrt control), UL Annex− 7-AAD+", "setting": "[2]; 2.5 μg/mL", "value": 1.0, "unit": "fold"}, {"measurement": "Fold increase (wrt control), UR Annex+ 7-AAD+", "setting": "[2]; 2.5 μg/mL", "value": 2.5, "unit": "fold"}, {"measurement": "% Population of cells, LL Annex− 7AAD− Viable", "setting": "[2]; 5 μg/mL", "value": 81.3, "unit": "%"}, {"measurement": "% Population of cells, LR Annex+ 7AAD− Early apoptotic", "setting": "[2]; 5 μg/mL", "value": 0.4, "unit": "%"}]}]}
